Two molecules from publication PMC8079448, “Structure of the SWI/SNF complex bound to the nucleosome and insights into the functional modularity” (Cell Discovery, 2021) can be followed below.

The target in the experiment is T1, Snf5 (wild type, subunit of the recombinant SWI/SNF complex) (yeast, UniProt P18480 1-905).
T1 construct: Snf5, yeast, wild type; also called WT; source: overexpressed in E. coli (modified EcoExpress system), in the reconstituted complex
Nature of the experiment: cryo-EM structure; recombinant yeast SWI/SNF complex in complex with the mononucleosome; overall resolution 6.9 Å, local 3.1 Å at the nucleosome bound with the FH of Snf5, local 3.6 Å at the SRM. As to conditions: both partners purified.

T1 sequence (P18480 whole entry, one chain of several): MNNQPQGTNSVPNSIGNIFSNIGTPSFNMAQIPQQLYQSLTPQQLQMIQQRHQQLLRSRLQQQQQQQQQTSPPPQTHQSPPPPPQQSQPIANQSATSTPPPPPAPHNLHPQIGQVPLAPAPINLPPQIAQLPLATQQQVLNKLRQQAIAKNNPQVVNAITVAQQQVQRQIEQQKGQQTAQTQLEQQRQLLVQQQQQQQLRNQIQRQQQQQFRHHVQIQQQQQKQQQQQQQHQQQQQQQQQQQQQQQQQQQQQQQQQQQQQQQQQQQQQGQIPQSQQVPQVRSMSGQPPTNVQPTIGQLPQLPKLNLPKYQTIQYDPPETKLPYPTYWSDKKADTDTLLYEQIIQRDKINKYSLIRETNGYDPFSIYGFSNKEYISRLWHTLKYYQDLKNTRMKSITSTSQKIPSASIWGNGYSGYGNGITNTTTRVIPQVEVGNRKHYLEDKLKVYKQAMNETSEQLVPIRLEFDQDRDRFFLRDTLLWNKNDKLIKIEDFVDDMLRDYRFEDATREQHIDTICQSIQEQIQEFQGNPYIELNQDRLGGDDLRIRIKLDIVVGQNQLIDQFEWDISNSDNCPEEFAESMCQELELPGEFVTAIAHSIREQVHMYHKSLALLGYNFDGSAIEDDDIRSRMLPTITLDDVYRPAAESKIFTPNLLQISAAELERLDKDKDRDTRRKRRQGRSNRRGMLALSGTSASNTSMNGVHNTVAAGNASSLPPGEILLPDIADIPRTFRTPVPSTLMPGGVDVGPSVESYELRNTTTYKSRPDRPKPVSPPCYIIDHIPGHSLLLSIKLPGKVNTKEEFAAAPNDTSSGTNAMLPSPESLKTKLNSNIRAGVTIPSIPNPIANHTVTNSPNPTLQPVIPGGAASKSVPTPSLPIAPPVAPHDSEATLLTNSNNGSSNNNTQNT

B1: Swi3 (natural protein, yeast)
chain: MENTLGEGSTVNASVDVDQHGNDNNSDSNANAAVAGVANTDTAGEESQQQDESLKDEATVPNTRDAESEAITVTAKQQPTMQANKLDSQETPSTEESRAQNVFGQDNEDSDNLFGETESSVSNNEANTPSIPTNPVDNENNKPAIKEDSTIQDSNGDVKNMEDVKIQKEEEPENNTVIEGVKEESQPDENTKEMDEVEEDDEDDDQPMISPDNSIFGDTKSESKQLGNTSSVANTPSEIPDAHKAEQEDIIEKTESVDKKVDSGEERNEQEREIMNDHSKSANPKKTTITRVEPETFEIPQAHEIVIPSYSKWFNLEKIHSIEVQSLPEFFTNRIPSKTPEVYMRYRNFMVNSYRLNPNEYFSVTTARRNVSGDAAALFRLHKFLTKWGLINYQVDSKLLPKNIEPPLTSQYSTRHDAPRGLFPFESYKPSVQLPDMAKLKKMMNTSDSESTLYKYLKESKRKYDEITHPPSTTDDENGDKNDNGGKMNNEVSTSTSMTGDANLLEEGETSRPLKKVKILEQIDENWSKEDLQKLLKGIQEFGADWYKVAKNVGNKSPEQCILRFLQLPIEDKFLYGDGNGKGDNDNGLGPLKYAPHLPFSKSENPVLSTIAFLVGLVNPKTVQSMTQRAIQSAESIKSQKEEISDQKPIEHIKEGSEIAISSLGYRSHIFATNEERQMNFLTNELIRLQMEKLDAKLNHLKKLEKFMELERKTLERQQENLLIQRLNFNQNSSKIVNVLSKCLNLISDSNINNSSVAEKEEIRSQIDHFKSMLSKPETLSIGKNPFNKPNIETGENHNGQSISNENDVKPISIEAPQFYRYWSA
notes: Swi3, yeast; source: overexpressed in E. coli (modified EcoExpress system), in the reconstituted complex
In the case of B1, the binding result is “binds”.

B2: Swp82 (natural protein, yeast)
chain: MLGEDEGNTVLEKGNNPSVKQGEVGAVFIVPKILIREHERVILKQILQILDQDELVQPPLDKFPYKKLELPKYIDELKTRDATNTSYKMIQLDAYGEKKVGSNGELFGGRHYLFNTFTFTAHMGVLLVLLQDVIKVLYQSNATHDEDEFIVQHDQILVMETSEEQTKFLAKNGVIPEESKGSFKYITARSAFVEFGASVIAGGQRIVDDYWESLAKKQNLSSHQRVFKLSTNLISKISLLRPSFQNNRISNANEISANTNNTCTISTSKFESQYPIVTEQPSAEIREAYIENFAKGEHISAIVPGQSISGTLELSAQFRVPRYHSKNSFQQALQMKAMDIPIGRHEELLAQYESQAPDGSASISLPNHIPSVNPSNKPIKRMLSSILDINVSSSKNKKSEENEMIKPMNKGQHKNNTSLNINGWKFESLPLKSAENSGKQQYYRGLPLYEKNTLLERLKQLTPNEIKELEHLHDAVFVNTGLQNVRKVRTKKWKKYWQYKAGIPIGLKRSQLDEFKNKYLKDVLAQTSVTTNFNEITNTDETITTKRVPNPNFLGNCNIKDFKPPYIYSHVNKVPQNVAGDKTAVKLDTEVKNTNANPVVATDPVAAKPDNLANFSNEVAMNN
notes: Swp82, yeast; source: overexpressed in E. coli (modified EcoExpress system), in the reconstituted complex
Regarding B2, the binding result was “binds”.
